The record followed here is the supplement of paper PMC5998384.

The test system of data set [1] is HeLa Kyoto. Nature of the data set: solubility in G1/S (NP-40 vs SDS abundance) (log2 ratio); higher = more soluble. The conditions noted are these: cell cycle stage: G1/S.
Data set [2] concerns HeLa Kyoto. Nature of the data set: melting temperature (median over replicates), in situ; higher = more thermally stable.
In data set [3] the test system is HeLa Kyoto. Nature of the data set: solubility change mitosis vs G1/S (difference of NP-40 vs SDS log2 ratios) (log2 ratio difference); higher = more soluble in mitosis.
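Wherever melting temperature (median over replicates), in situ is given: HeLa Kyoto cells synchronized by double thymidine or nocodazole block, proteins quantified by TMT10plex mass spectrometry, three independent biological replicates.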
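Wherever solubility change mitosis vs G1/S (difference of NP-40 vs SDS log2 ratios) is given: synchronized HeLa Kyoto cells (double thymidine block for G1/S, nocodazole release for mitosis), protein amounts in NP-40 versus SDS lysates quantified by mass spectrometry, three biological replicates.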
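Wherever solubility in G1/S (NP-40 vs SDS abundance) is given: HeLa Kyoto cells arrested at G1/S by double thymidine block, proteins quantified by TMT10plex mass spectrometry in mild NP-40 versus SDS extracts, three biological replicates.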

For the sequence “MELFQAKDHYILQQGERALWCSRRDGGLQLRPATDLLLAWNPICLGLVEGVIGKIQLHSDLPWWLILIRQKALVGKLPGDHEVCKVTKIAVLSLSEMEPQDLELELCKKHHFGINKPEKIIPSPDDSKFLLKTFTHIKSNVSAPNKKKVKESKEKEKLERRLLEELLKMFMDSESFYYSLTYDLTNSVQRQSTGERDGRPLWQKVDDRFFWNKYMIQDLTEIGTPDVDFWIIPMIQGFVQIEELVVNYTESSDDEKSSPETPPQESTCVDDIHPRFLVALISRRSRHRAGMRYKRRGVDKNGNVANYVETEQLIHVHNHTLSFVQTRGSVPVFWSQVGYRYNPRPRLDRSEKETVAYFCAHFEEQLNIYKKQVIINLVDQAGREKIIGDAYLKQVLLFNNSHLTYVSFDFHEHCRGMKFENVQTLTDAIYDIILDMKWCWVDEAGVICKQEGIFRVNCMDCLDRTNVVQAAIARVVMEQQLKKLGVMPPEQPLPVKCNRIYQIMWANNGDSISRQYAGTAALKGDFTRTGERKLAGVMKDGVNSANRYYLNRFKDAYRQAVIDLMQGIPVTEDLYSIFTKEKEHEALHKENQRSHQELISQLLQSYMKLLLPDDEKFHGGWALIDCDPSLIDATHRDVDVLLLLSNSAYYVAYYDDEVDKVNQYQRLSLENLEKIEIGPEPTLFGKPKFSCMRLHYRYKEASGYFHTLRAVMRNPEEDGKDTLQCIAEMLQITKQAMGSDLPIIEKKLERKSSKPHEDIIGIRSQNQGSLAQGKNFLMSKFSSLNQKVKQTKSNVNIGNLRKLGNFTKPEMKVNFLKPNLKVNLWKSDSSLETMENTGVMDKVQAESDGDMSSDNDSYHSDEFLTNSKSDEDRQLANSLESVGPIDYVLPSCGIIASAPRLGSRSQSLSSTDSSVHAPSEITVAHGSGLGKGQESPLKKSPSAGDVHILTGFAKPMDIYCHRFVQDAQNKVTHLSETRSVSQQASQERNQMTNQVSNETQSESTEQTPSRPSQLDVSLSATGPQFLSVEPAHSVASQKTPTSASSMLELETGLHVTPSPSESSSSRAVSPFAKIRSSMVQVASITQAGLTHGINFAVSKVQKSPPEPEIINQVQQNELKKMFIQCQTRIIQI [INPP5F]”, the “solubility in G1/S (log2)” value with HeLa Kyoto [1] is -0.015. In addition, the values for the melting temperature in the data set with HeLa Kyoto [2] (cell cycle stage: G1/S) and in the data set with HeLa Kyoto [2] (cell cycle stage: mitosis) were 51.3 °C and 49.3 °C, respectively. Also, the “solubility change mitosis (log2)” value with HeLa Kyoto [3] was -0.171.
On to “MENFRKVRSEEAPAGCGAEGGGPGSGPFADLAPGAVHMRVKEGSKIRNLMAFATASMAQPATRAIVFSGCGRATTKTVTCAEILKRRLAGLHQVTRLRYRSVREVWQSLPPGPTQGQTPGEPAASLSVLKNVPGLAILLSKDALDPRQPGYQPPNPHPGPSSPPAAPASKRSLGEPAAGEGSAKRSQPEPGVADEDQTA [RPP25]”, for which the “solubility in G1/S (log2)” value in the data set with HeLa Kyoto [1] came out at 0.179. In addition, the melting temperature in the data set with HeLa Kyoto [2] (cell cycle stage: G1/S) came out at 54.5 °C; with HeLa Kyoto [2] (cell cycle stage: mitosis), 53.7 °C. The “solubility change mitosis (log2)” value with HeLa Kyoto [3] is 0.258.
For “MEPAGPCGFCPAGEVQPARYTCPRCNAPYCSLRCYRTHGTCAENFYRDQVLGELRGCSAPPSRLASALRRLRQQRETEDEPGEAGLSSGPAPGGLSGLWERLAPGEKAAFERLLSRGEAGRLLPPWRPWWWNRGAGPQLLEELDNAPGSDAAELELAPARTPPDSVKDASAAEPAAAERVLGDVPGACTPVVPTRIPAIVSLSRGPVSPLVRFQLPNVLFAYAHTLALYHGGDDALLSDFCATLLGVSGALGAQQVFASAEEALQAAAHVLEAGEHPPGPLGTRGAMHEVARILLGEGPTNQKGYTLAALGDLAQTLGRARKQAVAREERDHLYRARKKCQFLLAWTNENEAALTPLALDCARAHQAHAVVAEEVAALTGELERLWGGPVPPAPRTLIEELPS [ZNHIT2]” the same measures were 0.384, 48.9 °C, 49.4 °C and 0.141.
Consider “MERFVVTAPPARNRSKTALYVTPLDRVTEFGGELHEDGGKLFCTSCNVVLNHVRKSAISDHLKSKTHTKRKAEFEEQNVRKKQRPLTASLQCNSTAQTEKVSVIQDFVKMCLEANIPLEKADHPAVRAFLSRHVKNGGSIPKSDQLRRAYLPDGYENENQLLNSQDC [CGGBP1]”, for which, in the data set with HeLa Kyoto [1], the “solubility in G1/S (log2)” value was determined as 0.332. The melting temperature amounted to 51.7 °C in the data set with HeLa Kyoto [2] (cell cycle stage: G1/S) and 51.8 °C in the data set on HeLa Kyoto [2] (cell cycle stage: mitosis). Also, the “solubility change mitosis (log2)” value with HeLa Kyoto [3] was determined as 0.0407.
Turning to “MFPLTEENKHVAQLLLNTGTCPRCIFRFCGVDFHAPYKLPYKELLNELQKFLETEKDELILEVMNPPPKKIRLQELEDSIDNLSQNGEGRISVSHVGSTASKNSNLNVCNVCLGILQEFCEKDFIKKVCQKVEASGFEFTSLVFSVSFPPQLSVREHAAWLLVKQEMGKQSLSLGRDDIVQLKEAYKWITHPLFSEELGVPIDGKSLFEVSVVFAHPETVEDCHFLAAICPDCFKPAKNKQSVFTRMAVMKALNKIKEEDFLKQFPCPPNSPKAVCAVLEIECAHGAVFVAGRYNKYSRNLPQTPWIIDGERKLESSVEELISDHLLAVFKAESFNFSSSGREDVDVRTLGNGRPFAIELVNPHRVHFTSQEIKELQQKINNSSNKIQVRDLQLVTREAIGHMKEGEEEKTKTYSALIWTNKAIQKKDIEFLNDIKDLKIDQKTPLRVLHRRPLAVRARVIHFMETQYVDEHHFRLHLKTQAGTYIKEFVHGDFGRTKPNIGSLMNVTADILELDVESVDVDWPPALDD [PUS10]”, the “solubility in G1/S (log2)” value in the data set on HeLa Kyoto [1] turned out to be 0.0782. For the same sequence, the melting temperature in the data set with HeLa Kyoto [2] (cell cycle stage: G1/S) was 50.8 °C; with HeLa Kyoto [2] (cell cycle stage: mitosis), 51.8 °C. The “solubility change mitosis (log2)” value in the data set on HeLa Kyoto [3] is -0.271.
For “MGEEANDDKKPTTKFELERETELRFEVEASQSVQLELLTGMAEIFGTELTRNKKFTFDAGAKVAVFTWHGCSVQLSGRTEVAYVSKDTPMLLYLNTHTALEQMRRQAEKEEERGPRVMVVGPTDVGKSTVCRLLLNYAVRLGRRPTYVELDVGQGSVSIPGTMGALYIERPADVEEGFSIQAPLVYHFGSTTPGTNIKLYNKITSRLADVFNQRCEVNRRASVSGCVINTCGWVKGSGYQALVHAASAFEVDVVVVLDQERLYNELKRDLPHFVRTVLLPKSGGVVERSKDFRRECRDERIREYFYGFRGCFYPHAFNVKFSDVKIYKVGAPTIPDSCLPLGMSQEDNQLKLVPVTPGRDMVHHLLSVSTAEGTEENLSETSVAGFIVVTSVDLEHQVFTVLSPAPRPLPKNFLLIMDIRFMDLK [CLP1]” the same measures were -0.181, 46.9 °C, 48.8 °C and -0.0019.
